Measurements reported in patent US20220340682A1 (Sanofi, published 2022).

How the values were obtained:
[1] = target: T1, hCEACAM5, human CEACAM5 ECD (35-685) (human, UniProt P06731 35-685); experiment: SPR screening (Biacore T200) of example 6.4
T1 construct: produced in HEK293; also called human CEACAM5 protein; human CEACAM5 extracellular domain
T1 sequence: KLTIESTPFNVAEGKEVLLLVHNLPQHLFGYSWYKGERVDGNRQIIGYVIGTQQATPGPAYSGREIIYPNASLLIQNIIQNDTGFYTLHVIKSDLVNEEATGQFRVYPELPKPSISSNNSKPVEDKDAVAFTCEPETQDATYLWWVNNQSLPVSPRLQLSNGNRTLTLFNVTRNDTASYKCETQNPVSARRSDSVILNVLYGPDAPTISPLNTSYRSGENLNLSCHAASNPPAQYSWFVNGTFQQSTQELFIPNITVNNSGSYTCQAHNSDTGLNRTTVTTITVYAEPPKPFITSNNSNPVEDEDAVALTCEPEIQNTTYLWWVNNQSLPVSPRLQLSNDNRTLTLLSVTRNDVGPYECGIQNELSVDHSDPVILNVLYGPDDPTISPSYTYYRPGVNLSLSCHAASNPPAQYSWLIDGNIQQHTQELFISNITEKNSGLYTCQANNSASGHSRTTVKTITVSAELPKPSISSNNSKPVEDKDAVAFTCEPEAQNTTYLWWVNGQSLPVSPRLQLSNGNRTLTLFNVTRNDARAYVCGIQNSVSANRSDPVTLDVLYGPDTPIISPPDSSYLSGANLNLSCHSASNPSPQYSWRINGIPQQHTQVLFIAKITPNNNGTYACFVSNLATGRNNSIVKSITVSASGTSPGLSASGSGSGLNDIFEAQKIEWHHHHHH
Description: (§1) To evaluate impact of these modifications, IgGs binding was determined by measuring SPR signals with a Biacore T200 unit (GE Healthcare). Anti-human Fc antibodies were coupled to a Series S CM5 chip via amine coupling kit to reach a level of 10,000 response units (RU). Approximately 300 to 600 RU of each variant were captured by injecting supernatants at 1 μg/mL with a contact time of 60 seconds and a flow rate of 10 μL/min. All experiments were performed at 25° C. with HBS-EP+(10 mM Hepes, 150 mM NaCl, 3 mM EDTA, 0.05% surfactant P20) as the running buffer. In a screening mode, the human CEACAM5 cynomolgus CEACAM5/human A3B3 domain was injected at 50 nM over the captured IgG variants at a flow rate of 30 μLimin for 1 minute. […]
(§2) For each experiment, response data were processed using a reference surface, thereby allowing correction for bulk refractive index changes and any non-specific binding. […] First, the binding activity is estimated by the proportion of the theoretical maximum signal measured (percentage of Rmax, see FIG. 16). Second, the percentage of remaining signal is calculated using dissociation report points (the first one 10 seconds after the end of the injection and the second one 50 seconds after the end of injection) and reflects the stability of binding (see FIG. 17).

[2] = target: T2, cCEACAM5, M. fascicularis CEACAM5 ECD (35-688) (Macaca fascicularis); experiment: SPR screening (Biacore T200) of example 6.4
T2 construct: ECD followed by a 24 amino acid extension containing a His-Tag; also called cynomolgus CEACAM5; monkey CEACAM5
T2 chain: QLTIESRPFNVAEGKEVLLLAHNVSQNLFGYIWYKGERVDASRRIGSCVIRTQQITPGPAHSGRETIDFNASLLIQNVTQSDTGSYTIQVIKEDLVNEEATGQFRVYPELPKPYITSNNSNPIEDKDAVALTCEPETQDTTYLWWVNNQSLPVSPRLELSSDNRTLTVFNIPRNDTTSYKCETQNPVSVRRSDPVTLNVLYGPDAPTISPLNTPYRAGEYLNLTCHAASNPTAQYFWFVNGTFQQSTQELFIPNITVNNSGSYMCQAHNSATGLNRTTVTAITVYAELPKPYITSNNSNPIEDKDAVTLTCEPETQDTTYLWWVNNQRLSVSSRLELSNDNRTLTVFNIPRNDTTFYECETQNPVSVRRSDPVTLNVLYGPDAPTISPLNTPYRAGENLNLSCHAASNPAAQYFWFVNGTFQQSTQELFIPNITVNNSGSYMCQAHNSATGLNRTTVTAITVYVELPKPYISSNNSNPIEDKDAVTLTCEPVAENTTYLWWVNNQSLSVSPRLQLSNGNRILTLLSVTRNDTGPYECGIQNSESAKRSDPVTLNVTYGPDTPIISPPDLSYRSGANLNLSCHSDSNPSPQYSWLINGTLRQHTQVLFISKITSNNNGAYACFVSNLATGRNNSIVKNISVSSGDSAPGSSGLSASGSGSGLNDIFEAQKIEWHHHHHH
Description: as §1, §2

B1: MAb2_VLg5VHg2 (antibody, human IgG1, V domains shown)
VH: EVQLVESGGGLVQPGGSLRLSCAASGFVFSSYDMSWVRQAPGKGLEWVSYISSGGGITYYADSVKGRFTISRDNSKNTLYLQMNSLRAEDTAVYYCAAHYFGSSGPFAYWGQGTLVTVSS
VL: DIQMTQSPSSLSASVGDRVTITCRASENIFSYLAWYQQKPGKAPKLLIYNTRTLQSGVPSRFSGSGSGTDFTLTISSLQPEDFATYYCQHHYGTPFTFGQGTKLEIK
notes: Fused to human IgG1 and human Ckappa constant domains; tested as IgG in HEK293 supernatants diluted to 1 ug/ml; Parent of the alanine-scanning variants; also called MAb2_VLg5Hg2; humanized MAb2 grafted on IGHV3-23 / IGKV1D-39
binding result [1]: binds | binding result [2]: binds
